Consider seven molecules from patent US20250281611A1 (BIOSCEPTRE AUST, published 2025).

For experiment [1], the target named is T1, nfP2X7 CAR 1.
T1 construct: CAR-positive cells gated by the co-expressed EGFR marker; also called nfP2X7 targeted CAR; nfP2X7 CAR on EGFR+ T cells
Briefly: flow cytometry, nfP2X7 CAR 1 T cells (EGFR+ gate), anti-His-FITC detection. As for the experimental part:
(§1) nfP2X₇ CAR T cells were incubated with different BRiDGE variants at saturating concentrations. […] The MFI intensity correlates with the number of secondary bound antibodies bound to the BRiDGEs that are only detected if they are bound to the CAR T cells. EGFR was used as a marker gene to detect the CAR expression. Thus, the EGFR+ T cell population was defined as the CAR expressing cells and the EGFR− T cell population was defined as the CAR negative subset. MFI: median fluorescence intensity. EGFR: epidermal growth factor receptor. BLItz: Bio-Layer interferometry (BLI) technology using HIS-tag identification tips. HIS-tag MFI Ratio: relative index that is calculated by the testing condition MFI divided by the control MFI, which corresponds to the MFI measured on EGFR+ T cells (defined as CAR positive cells) divided by the MFI measured on the EGFR− T cells (defined as CAR negative cells). […] The higher the MFIR, the stronger the binding.

The target of experiment [2] is T1, nfP2X7 CAR 1. In words: flow cytometry, anti-His-FITC, MFI on EGFR+ (CAR+) over EGFR- (CAR-) T cells. As for the experimental part:
as §1
(In general: Flow cytometry measures light scatter and fluorescence of single cells or particles in a stream.)

The target in experiment [3] is T1, nfP2X7 CAR 1. In words: flow cytometry, anti-His-FITC, MFI on EGFR+ (CAR+) T cells over background 0.44. As for the experimental part:
as §1

Experiment [4] has as its target T2, CD19 (UniProt P15391 20-556, limits assumed).
T2 construct: whole, on cells; also called CD19 on JeKo-1
T2 sequence (looked up): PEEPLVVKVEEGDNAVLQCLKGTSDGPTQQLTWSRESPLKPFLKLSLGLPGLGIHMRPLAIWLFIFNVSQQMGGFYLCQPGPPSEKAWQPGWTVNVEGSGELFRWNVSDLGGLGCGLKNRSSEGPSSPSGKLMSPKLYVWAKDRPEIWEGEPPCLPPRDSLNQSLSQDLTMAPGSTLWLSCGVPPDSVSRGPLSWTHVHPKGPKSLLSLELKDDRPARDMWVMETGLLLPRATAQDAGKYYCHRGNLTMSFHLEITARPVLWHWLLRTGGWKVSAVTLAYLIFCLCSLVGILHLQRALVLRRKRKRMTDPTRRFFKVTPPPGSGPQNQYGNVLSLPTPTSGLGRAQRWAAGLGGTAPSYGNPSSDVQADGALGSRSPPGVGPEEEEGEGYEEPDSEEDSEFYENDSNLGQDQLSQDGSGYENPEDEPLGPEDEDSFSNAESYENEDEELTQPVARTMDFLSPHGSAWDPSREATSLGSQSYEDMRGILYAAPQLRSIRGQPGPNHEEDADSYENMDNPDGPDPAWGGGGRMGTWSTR
Briefly: flow cytometry, JeKo-1 cells, BIL03s-AF647 detection, MFI over no-bridge control. As for the experimental part: (§2) JeKo-1 cells were incubated with different CD19 BRiDGE variants at saturating concentrations. […] The MFI intensity correlates with the number of secondary bound antibodies bound to the CD19 BRiDGE variants that are only detected if they are bound to the JeKo-1 cells. MFI: median fluorescence intensity. BLitz: Bio-Layer interferometry (BLI) technology using HIS-tag identification tips. […] The higher the MFIR, the stronger the binding.

Experiment [5] addresses T2, CD19. Briefly: flow cytometry, JeKo-1 cells, bridge at saturating conc., BIL03s-AF647 detection. As for the experimental part: as §2
Experiment [6] concerns the target T2, CD19. In words: flow cytometry, JeKo-1 cells, anti-His-FITC detection, MFI over no-bridge control. As for the experimental part: as §2
Experiment [7] deals with T2, CD19. Briefly: flow cytometry, JeKo-1 cells, bridge at saturating conc., anti-His-FITC detection. As for the experimental part: as §2

B1: CD19 BRIDGE variant B4 (Fab)
heavy: EVQLVESGGGLVKPGGSLKLSCAASGYTFTSYVMHWVRQAPGKGLEWIGYINPYNDGTKYNEKFQGRVTISSDKSISTAYMELSSLRSEDTAMYYCARGTYYYGTRVFDYWGQGTLVTVSSASTKGPSVFPLAPSSKSTSGGTAALGCLVKDYFPEPVTVSWNSGALTSGVHTFPAVLQSSGLYSLSSVVTVPSSSLGTQTYICNVNHKPSNTKVDKKVEPKSCHHHHHH
light: GHNYTTRNILPGLNITSTFHKTSGSGKEPKSSDKTHTDIVMTQSPATLSLSPGERATLSCRSSKSLQNVNGNTYLYWFQQKPGQSPQLLIYRMSNLNSGVPDRFSGSGSGTEFTLTISSLEPEDFAVYYCMQHLEYPITFGAGTKLEIKRTVAAPSVFIFPPSDEQLKSGTASVVCLLNNFYPREAKVQWKVDNALQSGNSQESVTEQDSKDSTYSLSSTLTLSKADYEKHKVYACEVTHQGLSSPVTKSFNRGEC
As to B1, the “MFI HisTag FITC in EGFR+ Population” value in experiment [1] amounted to 2.05. Moreover, the “HisTag MFI Ratio of EGFR+/EGFR-” value in experiment [2] worked out at 4.1. Moreover, in experiment [3], the “HisTag MFI Ratio (background 0.44)” value amounted to 4.7. In experiment [4], the “MFIR BIL03 AF647” value is 19.6. Besides, the “MFI Bil03 AF647” value in experiment [5] is 9.02. Moreover, in experiment [6], the “MFIR HisTag FITC” value came out at 5.05. In addition, the “MFI HisTag FITC” value in experiment [7] was determined as 3.89.

B2: CD19 BRIDGE variant B5 (Fab)
heavy: EVQLVESGGGLVKPGGSLKLSCAASGYTFTSYVMHWVRQAPGKGLEWIGYINPYNDGTKYNEKFQGRVTISSDKSISTAYMELSSLRSEDTAMYYCARGTYYYGTRVFDYWGQGTLVTVSSASTKGPSVFPLAPSSKSTSGGTAALGCLVKDYFPEPVTVSWNSGALTSGVHTFPAVLQSSGLYSLSSVVTVPSSSLGTQTYICNVNHKPSNTKVDKKVEPKSCHHHHHH
light: GHNYTTRNILPGLNITSTFHKTSGSGKGSEPKSSDKTHTDIVMTQSPATLSLSPGERATLSCRSSKSLQNVNGNTYLYWFQQKPGQSPQLLIYRMSNLNSGVPDRFSGSGSGTEFTLTISSLEPEDFAVYYCMQHLEYPITFGAGTKLEIKRTVAAPSVFIFPPSDEQLKSGTASVVCLLNNFYPREAKVQWKVDNALQSGNSQESVTEQDSKDSTYSLSSTLTLSKADYEKHKVYACEVTHQGLSSPVTKSFNRGEC
Consider B2, for which the “MFI HisTag FITC in EGFR+ Population” value in experiment [1] was found to be 2.08. The “HisTag MFI Ratio of EGFR+/EGFR-” value in experiment [2] was found to be 4.2. In addition, the “HisTag MFI Ratio (background 0.44)” value in experiment [3] was found to be 4.7. Further, in experiment [4], the “MFIR BIL03 AF647” value was 12. In addition, the “MFI Bil03 AF647” value in experiment [5] stood at 5.5. For the same molecule, the “MFIR HisTag FITC” value in experiment [6] was 4.42. Besides, the “MFI HisTag FITC” value in experiment [7] was determined as 3.4.

B3: CD19 BRIDGE variant B10 (Fab)
heavy: EVQLVESGGGLVKPGGSLKLSCAASGYTFTSYVMHWVRQAPGKGLEWIGYINPYNDGTKYNEKFQGRVTISSDKSISTAYMELSSLRSEDTAMYYCARGTYYYGTRVFDYWGQGTLVTVSSASTKGPSVFPLAPSSKSTSGGTAALGCLVKDYFPEPVTVSWNSGALTSGVHTFPAVLQSSGLYSLSSVVTVPSSSLGTQTYICNVNHKPSNTKVDKKVEPKSCHHHHHH
light: GHNYTTRNILPGLNITSTFHKTSGSGKEPKSSDKTHTGSDIVMTQSPATLSLSPGERATLSCRSSKSLQNVNGNTYLYWFQQKPGQSPQLLIYRMSNLNSGVPDRFSGSGSGTEFTLTISSLEPEDFAVYYCMQHLEYPITFGAGTKLEIKRTVAAPSVFIFPPSDEQLKSGTASVVCLLNNFYPREAKVQWKVDNALQSGNSQESVTEQDSKDSTYSLSSTLTLSKADYEKHKVYACEVTHQGLSSPVTKSFNRGEC
On to B3, for which the “MFI HisTag FITC in EGFR+ Population” value in experiment [1] was 2.26. In experiment [2], the “HisTag MFI Ratio of EGFR+/EGFR-” value was found to be 4.3. In experiment [3], the “HisTag MFI Ratio (background 0.44)” value stood at 5.1. For the same molecule, in experiment [4], the “MFIR BIL03 AF647” value came out at 16.8. In addition, in experiment [5], the “MFI Bil03 AF647” value is 7.71. Moreover, the “MFIR HisTag FITC” value in experiment [6] worked out at 4.25. Besides, the “MFI HisTag FITC” value in experiment [7] was determined as 3.27.

B4: CD19 BRIDGE variant B1 (Fab, V domains shown)
VH: EVQLVESGGGLVKPGGSLKLSCAASGYTFTSYVMHWVRQAPGKGLEWIGYINPYNDGTKYNEKFQGRVTISSDKSISTAYMELSSLRSEDTAMYYCARGTYYYGTRVFDYWGQGTLVTVSS
VL: DIVMTQSPATLSLSPGERATLSCRSSKSLQNVNGNTYLYWFQQKPGQSPQLLIYRMSNLNSGVPDRFSGSGSGTEFTLTISSLEPEDFAVYYCMQHLEYPITFGAGTKLEIKR
Turning to B4, the “MFI HisTag FITC in EGFR+ Population” value in experiment [1] came to 2.1. Besides, the “HisTag MFI Ratio of EGFR+/EGFR-” value in experiment [2] stood at 4. The “HisTag MFI Ratio (background 0.44)” value in experiment [3] was 4.8. The “MFIR BIL03 AF647” value in experiment [4] stood at 6.93. Moreover, in experiment [5], the “MFI Bil03 AF647” value stood at 3.19. In addition, in experiment [6], the “MFIR HisTag FITC” value turned out to be 4.17. For the same molecule, the “MFI HisTag FITC” value in experiment [7] came to 3.21.

B5: CD19 BRIDGE variant B3 (Fab, V domains shown)
VH: EVQLVESGGGLVKPGGSLKLSCAASGYTFTSYVMHWVRQAPGKGLEWIGYINPYNDGTKYNEKFQGRVTISSDKSISTAYMELSSLRSEDTAMYYCARGTYYYGTRVFDYWGQGTLVTVSS
VL: DIVMTQSPATLSLSPGERATLSCRSSKSLQNVNGNTYLYWFQQKPGQSPQLLIYRMSNLNSGVPDRFSGSGSGTEFTLTISSLEPEDFAVYYCMQHLEYPITFGAGTKLEIKR
Regarding B5, the “MFI HisTag FITC in EGFR+ Population” value in experiment [1] worked out at 2.05. Moreover, the “HisTag MFI Ratio of EGFR+/EGFR-” value in experiment [2] amounted to 4.1. In addition, in experiment [3], the “HisTag MFI Ratio (background 0.44)” value was found to be 4.7. The “MFIR BIL03 AF647” value in experiment [4] was 11.8. The “MFI Bil03 AF647” value in experiment [5] amounted to 5.43. Moreover, in experiment [6], the “MFIR HisTag FITC” value was 4.71. In addition, the “MFI HisTag FITC” value in experiment [7] was 3.63.

B6: CD19 BRIDGE variant B2 (Fab, V domains shown)
VH: EVQLVESGGGLVKPGGSLKLSCAASGYTFTSYVMHWVRQAPGKGLEWIGYINPYNDGTKYNEKFQGRVTISSDKSISTAYMELSSLRSEDTAMYYCARGTYYYGTRVFDYWGQGTLVTVSS
VL: DIVMTQSPATLSLSPGERATLSCRSSKSLQNVNGNTYLYWFQQKPGQSPQLLIYRMSNLNSGVPDRFSGSGSGTEFTLTISSLEPEDFAVYYCMQHLEYPITFGAGTKLEIKR
For the molecule B6, the “MFI HisTag FITC in EGFR+ Population” value in experiment [1] was 2.07. Also, the “HisTag MFI Ratio of EGFR+/EGFR-” value in experiment [2] amounted to 4.1. In experiment [3], the “HisTag MFI Ratio (background 0.44)” value was determined as 4.7. Further, in experiment [4], the “MFIR BIL03 AF647” value was determined as 9.07. Besides, in experiment [5], the “MFI Bil03 AF647” value stood at 4.17. For the same molecule, the “MFIR HisTag FITC” value in experiment [6] stood at 4.51. For the same molecule, the “MFI HisTag FITC” value in experiment [7] was 3.47.

B7: CD19 BRIDGE variant B7 (Fab, V domains shown)
VH: EVQLVESGGGLVKPGGSLKLSCAASGYTFTSYVMHWVRQAPGKGLEWIGYINPYNDGTKYNEKFQGRVTISSDKSISTAYMELSSLRSEDTAMYYCARGTYYYGTRVFDYWGQGTLVTVSS
VL: DIVMTQSPATLSLSPGERATLSCRSSKSLQNVNGNTYLYWFQQKPGQSPQLLIYRMSNLNSGVPDRFSGSGSGTEFTLTISSLEPEDFAVYYCMQHLEYPITFGAGTKLEIKR
As to B7, in experiment [1], the “MFI HisTag FITC in EGFR+ Population” value was 2.22. Moreover, the “HisTag MFI Ratio of EGFR+/EGFR-” value in experiment [2] worked out at 4. Also, in experiment [3], the “HisTag MFI Ratio (background 0.44)” value amounted to 5. In addition, the “MFIR BIL03 AF647” value in experiment [4] was determined as 16.5. Moreover, in experiment [5], the “MFI Bil03 AF647” value amounted to 7.57. In addition, in experiment [6], the “MFIR HisTag FITC” value came to 4.3. The “MFI HisTag FITC” value in experiment [7] turned out to be 3.31.
